Read-outs that look alike come from different tables or passages of the source.
How the values were obtained:
[1] = molecular target: ADAM 10 protein on Ramos cells, U937 cells and B cells; test: cell-based or functional assay
[2] = molecular target: mouse ADAM 10 catalytic domain (mouse) (UniProt O35598); test: enzyme inhibition ('unpublished observation')
[3] = molecular target: Human ADAM10 protease containing the catalytic/disintegrin domains (human) (UniProt O14672); test: enzyme inhibition, fluorescent peptide substrate
Human ADAM10 protease containing the catalytic/disintegrin domains (human), sequence (O14672 214-672 limits assumed): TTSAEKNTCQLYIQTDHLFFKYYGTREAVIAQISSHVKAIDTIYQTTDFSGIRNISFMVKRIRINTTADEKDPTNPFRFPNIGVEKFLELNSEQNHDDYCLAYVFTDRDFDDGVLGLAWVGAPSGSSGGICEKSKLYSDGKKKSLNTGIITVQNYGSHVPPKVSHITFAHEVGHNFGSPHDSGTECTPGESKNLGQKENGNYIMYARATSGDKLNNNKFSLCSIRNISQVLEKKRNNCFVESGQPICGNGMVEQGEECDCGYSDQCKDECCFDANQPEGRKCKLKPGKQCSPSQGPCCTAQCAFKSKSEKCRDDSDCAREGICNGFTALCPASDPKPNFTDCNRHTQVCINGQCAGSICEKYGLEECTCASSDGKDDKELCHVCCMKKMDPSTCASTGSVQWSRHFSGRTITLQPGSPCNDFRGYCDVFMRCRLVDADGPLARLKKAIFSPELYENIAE

[4] = molecular target: Human TACE protease containing the catalytic/disintegrin domains (human) (UniProt P78536); test: enzyme inhibition, fluorescent peptide substrate
Human TACE protease containing the catalytic/disintegrin domains (human), sequence (P78536 215-671 limits assumed): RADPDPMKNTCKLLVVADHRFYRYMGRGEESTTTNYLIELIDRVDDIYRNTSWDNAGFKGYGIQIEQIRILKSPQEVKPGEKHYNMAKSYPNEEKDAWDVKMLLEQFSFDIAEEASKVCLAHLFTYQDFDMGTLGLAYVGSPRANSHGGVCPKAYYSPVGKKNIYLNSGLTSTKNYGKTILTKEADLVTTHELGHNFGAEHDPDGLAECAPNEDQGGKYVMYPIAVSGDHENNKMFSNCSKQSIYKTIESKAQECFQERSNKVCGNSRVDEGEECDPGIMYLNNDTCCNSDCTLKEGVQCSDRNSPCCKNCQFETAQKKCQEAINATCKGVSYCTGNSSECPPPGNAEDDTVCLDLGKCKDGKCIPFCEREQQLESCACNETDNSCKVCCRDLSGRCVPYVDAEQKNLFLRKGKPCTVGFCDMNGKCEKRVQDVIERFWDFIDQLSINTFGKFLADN

MMP 13 = test: enzyme inhibition, fluorescent peptide substrate
MMP 14 = test: enzyme inhibition, fluorescent peptide substrate
MMP 1 = test: enzyme inhibition, fluorescent peptide substrate
MMP 1, sequence (P03956 100-469): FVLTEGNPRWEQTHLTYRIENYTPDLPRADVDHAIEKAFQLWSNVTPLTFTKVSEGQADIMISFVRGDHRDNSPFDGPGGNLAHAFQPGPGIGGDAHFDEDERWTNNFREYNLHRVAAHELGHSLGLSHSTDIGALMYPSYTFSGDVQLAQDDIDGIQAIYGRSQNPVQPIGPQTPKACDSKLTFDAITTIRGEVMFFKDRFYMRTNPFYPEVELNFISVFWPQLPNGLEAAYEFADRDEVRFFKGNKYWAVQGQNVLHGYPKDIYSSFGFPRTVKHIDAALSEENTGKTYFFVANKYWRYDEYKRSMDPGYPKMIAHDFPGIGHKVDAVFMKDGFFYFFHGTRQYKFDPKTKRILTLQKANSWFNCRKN

MMP 2 = test: enzyme inhibition, fluorescent peptide substrate
MMP 2, sequence (P08253 110-660): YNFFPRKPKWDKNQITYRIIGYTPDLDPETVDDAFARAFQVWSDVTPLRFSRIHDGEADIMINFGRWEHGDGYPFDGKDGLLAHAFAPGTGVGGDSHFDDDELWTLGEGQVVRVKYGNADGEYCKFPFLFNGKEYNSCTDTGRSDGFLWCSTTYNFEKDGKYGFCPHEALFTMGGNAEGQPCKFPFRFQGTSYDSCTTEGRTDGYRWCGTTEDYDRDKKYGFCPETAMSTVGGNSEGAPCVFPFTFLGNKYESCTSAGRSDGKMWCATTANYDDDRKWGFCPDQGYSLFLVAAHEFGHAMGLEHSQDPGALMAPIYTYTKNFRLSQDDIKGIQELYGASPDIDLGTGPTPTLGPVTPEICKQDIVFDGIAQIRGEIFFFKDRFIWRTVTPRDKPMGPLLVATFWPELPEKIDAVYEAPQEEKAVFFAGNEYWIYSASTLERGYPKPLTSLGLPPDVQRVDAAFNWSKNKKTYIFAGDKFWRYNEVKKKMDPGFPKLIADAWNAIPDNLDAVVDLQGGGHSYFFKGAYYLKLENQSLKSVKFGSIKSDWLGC

MMP 3 = test: enzyme inhibition, fluorescent peptide substrate
MMP 3, sequence (P08254 100-477): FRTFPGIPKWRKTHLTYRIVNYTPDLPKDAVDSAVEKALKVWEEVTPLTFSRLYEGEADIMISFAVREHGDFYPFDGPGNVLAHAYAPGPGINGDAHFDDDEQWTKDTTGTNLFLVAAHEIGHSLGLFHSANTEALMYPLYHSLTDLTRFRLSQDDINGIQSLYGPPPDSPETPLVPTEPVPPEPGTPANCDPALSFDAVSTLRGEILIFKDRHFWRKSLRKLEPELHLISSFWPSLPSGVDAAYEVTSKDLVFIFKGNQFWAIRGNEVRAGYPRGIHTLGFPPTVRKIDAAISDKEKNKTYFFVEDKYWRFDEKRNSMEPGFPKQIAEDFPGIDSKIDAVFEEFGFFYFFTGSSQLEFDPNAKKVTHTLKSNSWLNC

MMP 9 = test: enzyme inhibition, fluorescent peptide substrate
MMP 9, sequence (P14780 107-707): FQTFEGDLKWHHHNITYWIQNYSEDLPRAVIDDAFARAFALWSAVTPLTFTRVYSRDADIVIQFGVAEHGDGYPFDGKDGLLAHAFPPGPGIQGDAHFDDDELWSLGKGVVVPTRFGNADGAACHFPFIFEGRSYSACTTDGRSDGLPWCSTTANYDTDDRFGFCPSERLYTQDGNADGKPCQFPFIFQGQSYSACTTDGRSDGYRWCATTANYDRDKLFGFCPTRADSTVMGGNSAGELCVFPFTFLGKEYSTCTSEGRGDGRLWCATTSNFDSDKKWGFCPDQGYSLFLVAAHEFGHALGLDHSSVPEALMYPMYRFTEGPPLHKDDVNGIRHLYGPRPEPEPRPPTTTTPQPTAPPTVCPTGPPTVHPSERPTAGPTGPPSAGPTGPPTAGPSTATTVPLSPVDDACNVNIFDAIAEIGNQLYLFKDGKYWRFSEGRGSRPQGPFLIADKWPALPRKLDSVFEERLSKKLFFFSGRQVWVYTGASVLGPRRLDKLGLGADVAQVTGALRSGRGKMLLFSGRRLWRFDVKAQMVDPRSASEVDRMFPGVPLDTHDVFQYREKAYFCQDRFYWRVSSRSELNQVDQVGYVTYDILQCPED

[5] = molecular target: TACE catalytic domain (human) (human) (UniProt P78536); test: enzyme inhibition, fluorescent peptide substrate
TACE catalytic domain (human) (human), sequence (P78536 215-477 limits assumed): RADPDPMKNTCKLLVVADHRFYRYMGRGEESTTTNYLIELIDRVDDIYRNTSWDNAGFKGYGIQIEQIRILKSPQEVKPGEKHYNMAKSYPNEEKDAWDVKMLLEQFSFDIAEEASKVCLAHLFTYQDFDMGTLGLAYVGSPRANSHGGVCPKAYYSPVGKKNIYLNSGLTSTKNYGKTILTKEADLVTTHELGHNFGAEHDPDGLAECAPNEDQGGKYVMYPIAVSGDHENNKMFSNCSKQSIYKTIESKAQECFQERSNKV

[6] = molecular target: human ADAM 9 catalytic/disintegrin domains (human) (UniProt Q13443); test: enzyme inhibition, fluorescent peptide substrate
human ADAM 9 catalytic/disintegrin domains (human), sequence (Q13443 206-697 limits assumed): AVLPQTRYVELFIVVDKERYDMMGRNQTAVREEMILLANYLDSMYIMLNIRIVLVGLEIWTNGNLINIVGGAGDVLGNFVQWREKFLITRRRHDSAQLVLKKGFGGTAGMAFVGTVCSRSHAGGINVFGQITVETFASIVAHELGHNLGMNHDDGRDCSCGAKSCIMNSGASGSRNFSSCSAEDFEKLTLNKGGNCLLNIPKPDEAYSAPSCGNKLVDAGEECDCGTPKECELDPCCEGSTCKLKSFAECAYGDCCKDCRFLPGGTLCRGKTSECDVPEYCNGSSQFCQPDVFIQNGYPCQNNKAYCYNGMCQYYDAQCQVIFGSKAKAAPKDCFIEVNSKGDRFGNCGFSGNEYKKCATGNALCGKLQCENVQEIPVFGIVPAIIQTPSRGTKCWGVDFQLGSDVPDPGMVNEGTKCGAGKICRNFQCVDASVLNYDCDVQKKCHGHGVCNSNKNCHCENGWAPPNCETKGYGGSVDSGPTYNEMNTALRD

[7] = molecular target: human ADAM 9 catalytic/disintegrin domains (human) (UniProt Q13443); test: enzyme inhibition, fluorescent peptide substrate; remark: listed apart in the source
[8] = molecular target: T1, ADAM 8 catalytic domain (mouse) (mouse) (UniProt Q05910); test: enzyme inhibition, fluorescamine assay with Dnp peptide substrate
T1 sequence (looked up): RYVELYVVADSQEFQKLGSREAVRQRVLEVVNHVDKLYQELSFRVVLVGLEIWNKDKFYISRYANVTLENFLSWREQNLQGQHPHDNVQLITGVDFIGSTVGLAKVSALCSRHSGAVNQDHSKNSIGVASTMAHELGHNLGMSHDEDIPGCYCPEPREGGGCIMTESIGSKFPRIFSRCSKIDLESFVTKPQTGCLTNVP

[9] = molecular target: Human TACE protease containing the catalytic/disintegrin domains (human) (UniProt P78536); test: cell-based or functional assay
ADAM 10 on IMPE cells = test: cell-based or functional assay

mouse ADAM 10 catalytic domain (mouse), sequence (O35598 215-457 limits assumed): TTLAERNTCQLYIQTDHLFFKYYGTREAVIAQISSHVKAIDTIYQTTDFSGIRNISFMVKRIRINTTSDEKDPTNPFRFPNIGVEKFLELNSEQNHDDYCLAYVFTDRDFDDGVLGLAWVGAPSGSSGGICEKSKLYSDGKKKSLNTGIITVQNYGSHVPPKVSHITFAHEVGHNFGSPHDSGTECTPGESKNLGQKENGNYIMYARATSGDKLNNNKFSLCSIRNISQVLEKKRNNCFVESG

Q: What does the source list for “C173S ProADAM 10 23-213 (C-terminal His tag) (from UniProt O35598 23-213)”?
A: inhibition of CD23 shedding in Ramos cells (soluble CD23 ELISA) [1]: 30%; inhibition of CD23 shedding in U937 cells (soluble CD23 ELISA) [1]: 30%; Ki [2]: 17 nM; Ki [3]: 36 nM; Ki [4]: > 3000 nM; Ki (MMP 13): > 2000 nM; Ki (MMP 14): > 2000 nM; Ki (MMP 1): > 2000 nM; Ki (MMP 2): > 2000 nM; Ki (MMP 3): > 2000 nM; Ki (MMP 9): > 2000 nM; Ki [5]: > 3000 nM; Ki [6]: > 1000 nM; Ki [7]: 1000 nM; Ki [8]: > 10000 nM

Q: For “Pro ADAM 17 (mouse) (from UniProt Q9Z0F8 18-214)”, which prodomain inhibition of enzyme activity (percent) [9] is on record?
A: 0%

Q: Which results are given for “ADAM10 prodomain (betacellulin shedding assay, construct not specified)”?
A: inhibition of calcium ionophore induced betacellulin shedding (BTC ELISA) (ADAM 10 on IMPE cells): 67 % (at 15 µM); inhibition of calcium ionophore induced betacellulin shedding (BTC ELISA) (% (at 1.5 µM)) (ADAM 10 on IMPE cells): 25; inhibition of constitutive betacellulin shedding (BTC ELISA) (ADAM 10 on IMPE cells): 90 % (at 15 µM); inhibition of constitutive betacellulin shedding (BTC ELISA) (% (at 1.5 µM)) (ADAM 10 on IMPE cells): 75

From patent publication US20100081620A1
